{"source": "patent US6833355", "key": {"[1]": {"molecular_target": "nuclear proteins (mixture of Jurkat nuclear extract proteins purified on protein H-Sepharose)", "assay": "SPR (BIACORE X), protein H over immobilised nuclear proteins; mean ± SD of three experiments"}, "[2]": {"molecular_target": "nucleophosmin/B23 (NPM), papain-released material of Jurkat T cell membrane preparations, Mono-Q pool 85-87 (human) (UniProt P06748)", "sequence (P06748 1-147 limits assumed)": "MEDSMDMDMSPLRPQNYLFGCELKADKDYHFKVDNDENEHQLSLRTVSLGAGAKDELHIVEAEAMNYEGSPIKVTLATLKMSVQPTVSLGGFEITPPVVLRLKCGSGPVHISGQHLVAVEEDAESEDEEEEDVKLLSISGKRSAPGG", "assay": "SPR (BIACORE X), protein H over biotinylated NPM on an avidin chip; mean ± SD of three experiments"}, "[3]": {"molecular_target": "nucleophosmin/B23 (NPM), papain-released material of Jurkat T cell membrane preparations, Mono-Q pool 85-87 (human) (UniProt P06748)", "assay": "Affinity chromatography of 125I-labelled pool 85-87 (run-through of protein A-Sepharose) on protein H-Sepharose"}}}
{"substance": "protein H of Streptococcus pyogenes, COOH-terminally truncated fragment expressed by and purified from E. coli (305 amino acids) (from UniProt P50470 42-346)", "values": [{"measurement": "Ka", "setting": "[1]", "value": "2.62e+07", "unit": "M⁻¹"}, {"measurement": "Kd", "setting": "[1]", "value": 44, "unit": "nM"}, {"measurement": "koff", "setting": "[1]", "value": "6.7e-05", "unit": "s⁻¹"}, {"measurement": "kon", "setting": "[1]", "value": 1700, "unit": "M⁻¹ s⁻¹"}, {"measurement": "Ka", "setting": "[2]", "value": "3.6e+06", "unit": "M⁻¹"}, {"measurement": "Kd", "setting": "[2]", "value": 286, "unit": "nM"}, {"measurement": "koff", "setting": "[2]", "value": 0.0019, "unit": "s⁻¹"}, {"measurement": "kon", "setting": "[2]", "value": 6700, "unit": "M⁻¹ s⁻¹"}, {"measurement": "percent of radioactivity bound", "setting": "[3]", "value": "> 70", "unit": "%"}]}
